Laboratory results from publication PMC6255812.

Key:
[1] = molecular target: full-length ACA8 (plasma-membrane Ca2+-ATPase ACA8) (UniProt Q9LF79)
[2] = molecular target: full-length ACA8 (plasma-membrane Ca2+-ATPase ACA8) (UniProt Q9LF79); assay: native MS; DDM-solubilised ACA8, apo and with CaM; 200 mM ammonium acetate pH 8.3, 0.018% DDM; nanoESI, spectra at 200 V collision energy
[3] = molecular target: fluorescein-labeled regulatory domain of ACA8 (ACA8RD, residues 1-130) (UniProt Q9LF79); assay: fluorescence polarisation; fluorescence anisotropy, displacement; CaM added to a preformed complex of ACA8core (POPC nanodiscs) and labelled ACA8RD; decrease in anisotropy
fluorescein-labeled regulatory domain of ACA8 (ACA8RD, residues 1-130), sequence (Q9LF79 other isoform, or with tags, fused parts or gaps): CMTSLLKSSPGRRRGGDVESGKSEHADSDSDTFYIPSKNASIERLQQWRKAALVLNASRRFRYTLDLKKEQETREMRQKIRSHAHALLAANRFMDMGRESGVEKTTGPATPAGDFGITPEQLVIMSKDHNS

full-length ACA8 (plasma-membrane Ca2+-ATPase ACA8), sequence (Q9LF79 whole entry, the tested form may be a part): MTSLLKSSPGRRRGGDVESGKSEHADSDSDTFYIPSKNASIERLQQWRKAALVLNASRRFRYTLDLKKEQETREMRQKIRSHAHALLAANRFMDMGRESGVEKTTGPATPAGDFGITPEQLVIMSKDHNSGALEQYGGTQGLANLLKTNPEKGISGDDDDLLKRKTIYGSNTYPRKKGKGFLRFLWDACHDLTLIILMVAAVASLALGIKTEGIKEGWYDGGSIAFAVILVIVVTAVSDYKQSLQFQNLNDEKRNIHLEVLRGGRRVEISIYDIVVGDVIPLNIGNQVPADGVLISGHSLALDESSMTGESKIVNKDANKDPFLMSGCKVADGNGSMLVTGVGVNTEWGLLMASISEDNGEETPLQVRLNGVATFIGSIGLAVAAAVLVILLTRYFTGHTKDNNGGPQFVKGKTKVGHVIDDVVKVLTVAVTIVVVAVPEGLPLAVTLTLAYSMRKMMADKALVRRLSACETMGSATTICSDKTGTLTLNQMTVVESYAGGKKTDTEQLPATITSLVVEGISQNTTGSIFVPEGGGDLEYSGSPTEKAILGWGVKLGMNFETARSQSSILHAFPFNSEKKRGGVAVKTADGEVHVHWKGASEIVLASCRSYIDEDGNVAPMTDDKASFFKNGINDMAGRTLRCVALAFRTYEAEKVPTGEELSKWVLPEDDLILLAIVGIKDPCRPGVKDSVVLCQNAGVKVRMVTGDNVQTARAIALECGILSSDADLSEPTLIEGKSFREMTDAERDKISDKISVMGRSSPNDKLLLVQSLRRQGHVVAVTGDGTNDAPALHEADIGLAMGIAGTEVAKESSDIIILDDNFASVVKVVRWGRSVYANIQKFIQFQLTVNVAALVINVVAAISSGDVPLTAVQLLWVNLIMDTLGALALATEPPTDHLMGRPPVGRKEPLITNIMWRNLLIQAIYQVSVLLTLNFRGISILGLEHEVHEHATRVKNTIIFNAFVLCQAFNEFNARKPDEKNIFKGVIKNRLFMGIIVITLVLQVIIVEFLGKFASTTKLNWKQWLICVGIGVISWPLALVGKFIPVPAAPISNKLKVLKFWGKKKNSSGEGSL

- ATPase activity (Baginski assay) of detergent solubilized ACA8 with CaM against basal activity without CaM [1]: 2 fold
- stoichiometry N [2]: < 2
- K0.5 [3]: 120 nM
Substance: calmodulin CaM7 from A. thaliana (from UniProt P59220 1-149) (natural protein)
